Test results from article PMC8376927, “14-3-3 proteins inactivate DAPK2 by promoting its dimerization and protecting key regulatory phosphosites” (Communications Biology, 2021).
Non-standard residues stand in square brackets, D forms with d. No end group written: not given here. *: point of attachment. 5FAM = O=C1OC2(c3ccc(O)cc3Oc3cc(O)ccc32)c2ccc(C(=O)*)cc21; pT = C[C@@H](OP(=O)(O)O)[C@H](N)C(=O)O

B1: DAPK2_RNTD, full-length human DAPK2 mutant with the C terminus S367STS370 changed to R367NTD370, autophosphorylated (enzyme)
chain: MFQASMRSPNMEPFKQQKVEDFYDIGEELGSGQFAIVKKCREKSTGLEYAAKFIKKRQSRASRRGVSREEIEREVSILRQVLHHNVITLHDVYENRTDVVLILELVSGGELFDFLAQKESLSEEEATSFIKQILDGVNYLHTKKIAHFDLKPENIMLLDKNIPIPHIKLIDFGLAHEIEDGVEFKNIFGTPEFVAPEIVNYEPLGLEADMWSIGVITYILLSGASPFLGDTKQETLANITAVSYDFDEEFFSQTSELAKDFIRKLLVKETRKRLTIQEALRHPWITPVDNQQAMVRRESVVNLENFRKQYVRRRWKLSFSIVSLCNHLTRSLMKKVHLRPDEDLRNCESDTEEDIARRKALHPRRRRNTD
modifications: phosphothreonine at 369 (stoichiometrically autophosphorylated); autophosphorylated Ser318 (the peptide with Ser318 carried one or two phosphoresidues)
notes: Death-associated protein kinase 2 (DAPK2, DRP-1), human, full length; Cloned into modified pRSFDuet-1 (BamHI, NotI)
B6: Human 14-3-3γΔC (residues 1-235 lacking the C-terminal 13-residue-long flexible tail) (domain or fragment, UniProt P61981 1-235, looked up)
chain: MVDREQLVQKARLAEQAERYDDMAAAMKNVTELNEPLSNEERNLLSVAYKNVVGARRSSWRVISSIEQKTSADGNEKKIEMVRAYREKIEKELEAVCQDVLSLLDNYLIKNCSETQYESKVFYLKMKGDYYRYLAEVATGEKRATVVESSEKAYSEAHEISKEHMQPTHPIRLGLALNYSVFYYEIQNAPEQACHLAKTAFDDAIAELDTLNEDSYKDSTLIMQLLRDNLTLWTS
notes: 14-3-3 protein gamma, human, residues 1-235 (C-terminally truncated)

Assays:
[1] = molecular target: T1, rat calmodulin protein (Ca2+/CaM) (rat, UniProt P0DP29 1-149); experiment: AUC; sedimentation velocity, 50 μM mixture of DAPK2_RNTD with Ca2+/CaM (1:1 molar ratio) compared with 50 μM DAPK2_RNTD alone; 20 °C; details: both partners purified
T1 construct: calmodulin, rat; also called rat CaM

[2] = molecular target: T2, dansyl-labeled rat calmodulin (DANS-CaM) (rat, UniProt P0DP29 1-149, dansyl label (dansyl chloride; site not stated)); experiment: time-resolved fluorescence intensity and anisotropy decay; 25 μM DANS-CaM, 30 μM DAPK2, with or without 100 μM 14-3-3γ; 23 °C; 20 mM HEPES-NaOH pH 7.5, 150 mM NaCl, 1 mM CaCl2, 1 mM TCEP; details: both partners purified
T2 construct: calmodulin, rat; Measured with 1 mM CaCl2; also called DANS-Ca^2+/CaM; dansyl-Ca^2+/CaM

[3] = molecular target: B1; experiment: AUC; sedimentation velocity, 10-molar excess of 14-3-3γ over DAPK2_RNTD; 20 °C; details: both partners purified
[4] = molecular target: B1; experiment: AUC; sedimentation velocity, 10-molar excess of DAPK2_RNTD over 14-3-3γ; 20 °C; details: both partners purified
[5] = molecular target: B1; experiment: AUC; sedimentation velocity, mixtures of 6 μM DAPK2_RNTD and 0.6-60 μM 14-3-3γ; 20 °C; 50 mM HEPES-NaOH pH 7.5, 150 mM NaCl, 1 mM TCEP; details: both partners purified
[6] = molecular target: B6; experiment: fluorescence polarisation; 14-3-3γ (160 µM and binary dilution series) incubated 1 h with 50 nM FAM-labelled peptide; 20 mM HEPES-NaOH pH 7.4, 150 mM NaCl, 0.1% Tween 20, 0.1% BSA; one-site-binding model; apparent KD; details: both partners purified
[7] = molecular target: the molecule itself; experiment: crystal structure; binary complex 14-3-3γΔC:ctDAPK2-pT369 mixed 1:1.2; hanging drop, 290 K; space group R3; 2.7 Å

Does B1 bind [1]?
Result: binds

Does B1 bind [2]?
Result: binds

B2: Human 14-3-3γ WT (natural protein, UniProt P61981 1-247, looked up)
chain: MVDREQLVQKARLAEQAERYDDMAAAMKNVTELNEPLSNEERNLLSVAYKNVVGARRSSWRVISSIEQKTSADGNEKKIEMVRAYREKIEKELEAVCQDVLSLLDNYLIKNCSETQYESKVFYLKMKGDYYRYLAEVATGEKRATVVESSEKAYSEAHEISKEHMQPTHPIRLGLALNYSVFYYEIQNAPEQACHLAKTAFDDAIAELDTLNEDSYKDSTLIMQLLRDNLTLWTSDQQDDDGGEGNN
notes: 14-3-3 protein gamma, human, wild type; it speaks of the protein as a dimer
For B2, which “stoichiometry N” value [3] is on record?
Its value is 2 14-3-3γ per DAPK2 (printed 2:1).

What about the “stoichiometry N” value [4] of the same binder?
The value was 1 14-3-3γ per DAPK2 (printed 2:2).

What about the Kd [5] of the same binder?
The Kd was less than 0.1 µM.

B3: DAPK2_RNTD S318A (enzyme)
chain: MFQASMRSPNMEPFKQQKVEDFYDIGEELGSGQFAIVKKCREKSTGLEYAAKFIKKRQSRASRRGVSREEIEREVSILRQVLHHNVITLHDVYENRTDVVLILELVSGGELFDFLAQKESLSEEEATSFIKQILDGVNYLHTKKIAHFDLKPENIMLLDKNIPIPHIKLIDFGLAHEIEDGVEFKNIFGTPEFVAPEIVNYEPLGLEADMWSIGVITYILLSGASPFLGDTKQETLANITAVSYDFDEEFFSQTSELAKDFIRKLLVKETRKRLTIQEALRHPWITPVDNQQAMVRRESVVNLENFRKQYVRRRWKLAFSIVSLCNHLTRSLMKKVHLRPDEDLRNCESDTEEDIARRKALHPRRRRNTD
notes: Death-associated protein kinase 2 (DAPK2), human, full length, made from DAPK2_RNTD
Does B3 bind [2]?
Result: binds

B4: FAM-ctDAPK2-pT369 peptide (FAM-RRRSSpTS) (peptide)
peptide: 5FAM-RRRSS[pT]S
notes: source: synthetic peptide (Pepscan Presto BV)
With B4 as the binder, how does the Kd [6] read?
Its Kd is 0.161 ± 0.007 µM.

B5: DAPK2 WT, full-length human DAPK2, autophosphorylated (enzyme)
chain: MFQASMRSPNMEPFKQQKVEDFYDIGEELGSGQFAIVKKCREKSTGLEYAAKFIKKRQSRASRRGVSREEIEREVSILRQVLHHNVITLHDVYENRTDVVLILELVSGGELFDFLAQKESLSEEEATSFIKQILDGVNYLHTKKIAHFDLKPENIMLLDKNIPIPHIKLIDFGLAHEIEDGVEFKNIFGTPEFVAPEIVNYEPLGLEADMWSIGVITYILLSGASPFLGDTKQETLANITAVSYDFDEEFFSQTSELAKDFIRKLLVKETRKRLTIQEALRHPWITPVDNQQAMVRRESVVNLENFRKQYVRRRWKLSFSIVSLCNHLTRSLMKKVHLRPDEDLRNCESDTEEDIARRKALHPRRRSSTS
modifications: autophosphorylated at Ser318 and at two additional sites, at least, within the C-terminal 14-3-3-binding motif
notes: Death-associated protein kinase 2 (DAPK2, DRP-1), human, full length
Does B5 bind [2]?
Result: binds

Does B6 bind [7]?
Result: binds
